Assay [1] addresses T1, mouse ROR1 expressed on CHO cells (CHO-K1/Mouse ROR1 stable cells) (mouse, UniProt Q9Z139 30-937).
T1 construct: whole, on cells
The assay can be described thus: flow cytometry, 10 ug/ml antibody on Mouse ROR1-CHO-K1 cells (curve 2), fluorescent secondary antibody. On the procedure: (§1) CHO cells expressing human and mouse ROR1 and parental cells as the negative control for detection were collected and washed 3 times with PBS. 2.5×10⁵ test cells and 100 μl of purified antibody at 10 μg/ml were added to a 96-well plate, and the plate was incubated at 4° C. for 1 hour. The cells were then washed 3 times with PBS, 100 μl of iFluor-labeled goat anti-human IgG, an Fcγ-specific fragment antibody, was added, and the plate was incubated at 4° C. for 45 minutes. Finally, the cells were washed 3 times with PBS, and the signals were read using FACS BD Calibur.

In assay [2] the target is T2, human ROR1-His protein (fused with a His protein tag, Acrobiosystems, RO1-H522y) (human, UniProt Q01973 30-403).
T2 construct: also called recombinant human ROR1-His protein; not shown: His tag
The assay can be described thus: SPR Biacore T200, antibody Fc-captured, antigen as analyte. The protocol: (§2) The affinity of purified antibodies for human ROR1-related proteins was determined separately using the surface plasmon resonance (SPR) biosensor Biacore T200 (GE Healthcare). The antibodies were immobilized on the sensor chip by the Fc capture method. Human ROR1-related proteins were used as analytes. Data for dissociation (kd) and association (ka) rate constants were obtained using the Biacore T200 evaluation software. The equilibrium dissociation constant (KD) was calculated from the ratio of kd to ka.
(In general: Surface plasmon resonance follows binding to a sensor surface in real time, without labels.)

The target of assay [3] is T3, human ROR1 expressed on CHO cells (CHO-K1/Human ROR1 stable cells) (human, UniProt Q01973 30-937).
T3 construct: whole, on cells; also called CHO-K1/ROR1/Luc (Nanjing Probio, Cat #RD00949)
The assay can be described thus: flow cytometry, 10 ug/ml antibody on Human ROR1-CHO-K1 cells (curve 1), fluorescent secondary antibody. On the procedure: as §1

Assay [4] deals with T4, human ROR1 Frizzled-His domain protein (amino acid sequence at positions 165-305, Acrobiosystems, RO1-H5222) (human, UniProt Q01973 165-305).
T4 construct: also called Human ROR1 Frizzled-His protein; not shown: His tag
The assay can be described thus: SPR Biacore T200, method as Example 6 (antibody Fc-captured, antigen as analyte). The protocol: as §2
(§3) According to the mutation status of the improved clones in the precise saturation mutation library, the combinatorial mutations and the relevant primers for library construction for the second round were designed. The combinatorial mutation library construction was performed still using the prokaryotic soluble expression plasmid of the humanized single domain antibody as the template. The subsequent screening process was the same as that for the precise saturation mutation library. Finally, the top 5 or 7 clones ranked by the improvement fold in affinity were selected for recombinant verification. 5 clones with improved affinity (AHF22016, AHF22018, AHF22013, AHP15485-VHH4-Variant1, and AHP15485-VHH4-Variant2) were obtained from the humanized antibody AHP15485 through affinity maturation screening, and were subjected to eukaryotic expression and purification, as well as subsequent affinity detection at various concentrations. 7 clones (AHP15662-VHH4-Variant1, AHP15662-VHH4-Variant2, AHP15662-VHH4-Variant3, AHF21711, AHF21719, AHF21720, and AHF21721) were obtained from AHP15662-VHH4.

In assay [5] the target is T4, human ROR1 Frizzled-His domain protein …. The assay can be described thus: SPR Biacore T200, antibody Fc-captured, antigen as analyte. On the procedure:
as §2

Assay [6] concerns the target T2, human ROR1-His protein (fused with a …). The assay can be described thus: indirect ELISA, antigen coated at 1 ug/ml. The protocol: Indirect ELISA was used to assess the binding capability of the above purified antibodies to human ROR1-related recombinant proteins. ELISA plates (Nunc) were coated with 1 μg/ml of human ROR1-His protein, human ROR1 Frizzled-His domain protein, and human ROR1 Kringle-His domain protein in 100 μl/well of CBS overnight at 4° C. The plates were washed with PBS-T (0.05% Tween) and blocked with 300 μl/well of PBS containing 3% skim milk at 37° C. for 1 hour. Subsequently, the blocking solution was discarded, and 100 μl of purified antibody at 8 μg/ml (about 100 nM) was added to the first well and diluted according to a 3-fold gradient to obtain a total of 11 test concentration gradients. The plates were then incubated for 1 hour at room temperature. The plates were washed 3 times with PBST and incubated with 100 μl/well of horseradish peroxidase-conjugated mouse anti-human IgG Fc fragment (GenScript) for 0.5 hours at 37° C. The plates were washed five times with PBST, a TMB chromogenic solution (GenScript) was then added, and the plates were incubated for 15 minutes at room temperature in the dark. The reaction was stopped by adding 50 μl of 1 M HCl stop solution (Sigma). The plates were read at 450 nm using a microplate reader. FIGS. 1-3 show the results of the ELISA experiment on the binding of 8 positive recombinant antibody clones to ROR1-related antigen proteins, and the EC₅₀ for each antibody is as shown in Table 2 below: the antigen binding capacity of the antibodies tested was all equal to or higher than that of the positive reference antibody R11-scFv.
Background: An ELISA detects its analyte on a solid surface through an enzyme-linked reagent.

For assay [7] the target is unchanged. The assay can be described thus: SPR Biacore T200, method as Example 6 (antibody Fc-captured, antigen as analyte). The protocol: as §2, §3

The term Kd denotes the concentration at which binding is half-saturated. A lower Kd goes with higher affinity. The koff is the rate constant with which the complex falls apart. Higher therefore signals fast dissociation. For orientation: kon means the second-order rate constant of association. As a reminder, the EC50 is the concentration giving half of the maximal effect. Higher therefore signals a need for much substance.

T3 sequence (Q01973 30-937): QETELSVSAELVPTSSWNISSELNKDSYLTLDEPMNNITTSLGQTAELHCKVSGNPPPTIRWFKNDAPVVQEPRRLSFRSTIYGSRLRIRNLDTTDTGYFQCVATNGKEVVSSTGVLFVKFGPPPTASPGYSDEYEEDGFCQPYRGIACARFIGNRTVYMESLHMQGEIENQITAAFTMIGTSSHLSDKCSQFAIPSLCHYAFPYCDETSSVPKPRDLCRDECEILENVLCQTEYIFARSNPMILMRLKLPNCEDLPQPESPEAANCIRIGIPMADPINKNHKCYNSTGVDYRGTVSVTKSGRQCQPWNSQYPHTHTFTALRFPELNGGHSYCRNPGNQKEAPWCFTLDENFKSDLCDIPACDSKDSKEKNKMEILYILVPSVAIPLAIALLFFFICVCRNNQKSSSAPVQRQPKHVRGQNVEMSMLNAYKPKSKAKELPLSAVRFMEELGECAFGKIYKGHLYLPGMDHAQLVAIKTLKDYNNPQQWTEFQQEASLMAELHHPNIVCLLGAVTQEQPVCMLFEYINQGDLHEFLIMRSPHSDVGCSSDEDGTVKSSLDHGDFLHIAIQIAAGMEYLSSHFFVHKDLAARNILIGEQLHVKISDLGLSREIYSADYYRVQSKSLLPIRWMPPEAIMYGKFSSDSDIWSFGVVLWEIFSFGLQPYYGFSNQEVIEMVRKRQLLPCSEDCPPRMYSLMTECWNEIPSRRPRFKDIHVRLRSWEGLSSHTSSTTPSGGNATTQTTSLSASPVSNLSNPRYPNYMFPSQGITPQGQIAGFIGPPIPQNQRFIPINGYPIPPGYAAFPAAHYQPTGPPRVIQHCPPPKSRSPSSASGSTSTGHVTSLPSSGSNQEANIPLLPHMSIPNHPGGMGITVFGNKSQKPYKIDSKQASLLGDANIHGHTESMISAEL
T4 sequence (Q01973 165-305 limits assumed, form in doubt): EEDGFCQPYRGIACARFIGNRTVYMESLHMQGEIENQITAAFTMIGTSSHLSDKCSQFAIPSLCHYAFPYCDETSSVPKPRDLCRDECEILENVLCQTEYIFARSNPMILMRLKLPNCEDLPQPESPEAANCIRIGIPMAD
T1 sequence (Q9Z139 30-937): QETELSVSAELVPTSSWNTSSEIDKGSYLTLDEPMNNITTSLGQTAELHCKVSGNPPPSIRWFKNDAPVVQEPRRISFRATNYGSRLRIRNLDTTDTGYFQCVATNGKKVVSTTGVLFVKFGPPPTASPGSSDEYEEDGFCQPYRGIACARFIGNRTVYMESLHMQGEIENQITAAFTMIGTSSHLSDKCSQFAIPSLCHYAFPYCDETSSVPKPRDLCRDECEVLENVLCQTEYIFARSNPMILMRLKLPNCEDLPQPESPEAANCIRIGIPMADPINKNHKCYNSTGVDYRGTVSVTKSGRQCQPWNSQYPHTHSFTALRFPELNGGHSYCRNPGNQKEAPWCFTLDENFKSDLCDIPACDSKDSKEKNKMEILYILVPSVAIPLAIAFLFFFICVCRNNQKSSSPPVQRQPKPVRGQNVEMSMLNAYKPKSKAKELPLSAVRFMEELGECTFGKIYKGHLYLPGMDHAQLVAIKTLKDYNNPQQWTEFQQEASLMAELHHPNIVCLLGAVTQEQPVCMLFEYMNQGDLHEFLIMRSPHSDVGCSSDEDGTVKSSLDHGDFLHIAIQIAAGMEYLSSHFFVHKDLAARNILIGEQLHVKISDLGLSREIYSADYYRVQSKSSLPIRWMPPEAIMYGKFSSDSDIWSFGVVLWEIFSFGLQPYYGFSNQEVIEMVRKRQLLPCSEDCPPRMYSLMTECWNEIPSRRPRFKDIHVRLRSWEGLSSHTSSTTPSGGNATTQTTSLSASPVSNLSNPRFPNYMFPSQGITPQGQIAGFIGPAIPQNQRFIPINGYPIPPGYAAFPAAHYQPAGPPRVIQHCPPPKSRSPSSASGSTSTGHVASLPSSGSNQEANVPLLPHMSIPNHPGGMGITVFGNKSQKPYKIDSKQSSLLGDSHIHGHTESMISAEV
T2 sequence (Q01973 30-403 limits assumed): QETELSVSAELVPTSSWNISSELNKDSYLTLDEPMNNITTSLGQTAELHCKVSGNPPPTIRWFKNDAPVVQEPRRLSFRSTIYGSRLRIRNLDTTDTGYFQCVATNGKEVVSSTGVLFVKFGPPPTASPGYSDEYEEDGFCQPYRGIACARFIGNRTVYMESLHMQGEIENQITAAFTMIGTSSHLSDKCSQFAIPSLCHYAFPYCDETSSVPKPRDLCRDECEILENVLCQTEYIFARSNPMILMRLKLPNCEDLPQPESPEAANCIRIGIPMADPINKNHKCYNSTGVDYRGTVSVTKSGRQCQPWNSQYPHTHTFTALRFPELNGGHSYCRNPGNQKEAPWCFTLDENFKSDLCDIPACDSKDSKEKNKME

B1: humanized single domain antibody AHP15773-VHH4 (Fc fusion)
chain: EVQLVESGGGLVQPGGSLRLSCAASGSDFSDSAMGWYRQAPGKQREFVAAIGAGGITTYADSVKGRFTISRDNAKNTLYLQMNSLRAEDTAVYFCNFAPGWYPPGYQYWGQGTLVTVSS
notes: Humanized VHH expressed from pcDNA3.4-Fc (Human IgG1); not shown: human IgG1 Fc of the pcDNA3.4-Fc (Human IgG1) expression vector
Take B1: the “Geometric Mean : Alexa Fluor 647-H” value in assay [1] worked out at 48500. In addition, in assay [2], binding was characterised by a dissociation constant (Kd) of 0.319 µM, the koff was found to be 0.0587 s⁻¹ and the kon was 184000 M⁻¹ s⁻¹. In addition, the “Geometric Mean : Alexa Fluor 647-H” value in assay [3] is 28700.

B2: single domain antibody AHF21719 (Fc fusion)
chain: EVQLVESGGGLVQPGGSLRLSCAASGYISRFYAMGWYRQAPGKQRELVARISSGGWTYYADSVKGRFTISIDNSKNTLYLQMNSLRAEDTAVYYCNARNLWGQGTLVTVSS
notes: Fc format is inferred; not shown: human IgG1 Fc; vector and li
In assay [4], B2 yielded a Kd of 0.0216 µM, a koff of 0.00169 s⁻¹ and a kon of 78100 M⁻¹ s⁻¹.

B3: single domain antibody AHF21721 (Fc fusion)
chain: EVQLVESGGGLVQPGGSLRLSCAASGFISRFYAMGWYRQAPGKQRELVARISSMGWTYYADSVKGRFTISIDNSKNTLYLQMNSLRAEDTAVYYCNARNLWGQGTLVTVSS
notes: as for B2
In the case of B3, in assay [4], the Kd was determined as 0.0156 µM, the koff came to 0.00113 s⁻¹ and the kon is 72500 M⁻¹ s⁻¹.

B4: single domain antibody AHF21711 (Fc fusion)
chain: EVQLVESGGGLVQPGGSLRLSCAASHSISRFYAIGWYRQAPGKQRELVARISSMGRTYYADSVKGRFTISIDNSKNTLYLQMNSLRAEDTAVYYCNARNLWGQGTLVTVSS
notes: as for B2
Take B4: in assay [4], the Kd is 0.0193 µM, the koff was determined as 0.00174 s⁻¹ and the kon turned out to be 90100 M⁻¹ s⁻¹.

B5: single domain antibody AHF21720 (Fc fusion)
chain: EVQLVESGGGLVQPGGSLRLSCAASGYISRFYAMGWYRQAPGKQRELVARISSLGWTYYADSVKGRFTISIDNSKNTLYLQMNSLRAEDTAVYYCNARNLWGQGTLVTVSS
notes: as for B2
In assay [4], B5 came in with a Kd of 0.0169 µM, a koff of 0.00124 s⁻¹ and a kon of 73600 M⁻¹ s⁻¹.

B6: humanized single domain antibody AHP15662-VHH4 (Fc fusion)
chain: EVQLVESGGGLVQPGGSLRLSCAASGSISRFYAVGWYRQAPGKQRELVARISSGGSTYYADSVKGRFTISIDNSKNTLYLQMNSLRAEDTAVYYCNARNLWGQGTLVTVSS
notes: as for B1
As to B6, in assay [1], the “Geometric Mean : Alexa Fluor 647-H” value is 52800. In assay [5], this molecule yielded a Kd of 0.247 µM, a koff of 0.111 s⁻¹ and a kon of 449000 M⁻¹ s⁻¹. In assay [4], this molecule gave a Kd of 0.294 µM, a koff of 0.103 s⁻¹ and a kon of 350000 M⁻¹ s⁻¹. The “Geometric Mean : Alexa Fluor 647-H” value in assay [3] amounted to 55400.

B7: single domain antibody AHP15662-VHH4-Variant3 (Fc fusion)
chain: EVQLVESGGGLVQPGGSLRLSCAASHYISRFYAVGWYRQAPGKQRELVARISSGGWTYYADSVKGRFTISIDNSKNTLYLQMNSLRAEDTAVYYCNARNLWGQGTLVTVSS
notes: as for B2
In assay [4], B7 returned a Kd of 0.0395 µM, a koff of 0.0062 s⁻¹ and a kon of 157000 M⁻¹ s⁻¹.

B8: single domain antibody AHP15662-VHH4-Variant2 (Fc fusion)
chain: EVQLVESGGGLVQPGGSLRLSCAASYFISRFYAVGWYRQAPGKQRELVARISSGGWTYYADSVKGRFTISIDNSKNTLYLQMNSLRAEDTAVYYCNARNLWGQGTLVTVSS
notes: as for B2
As for B8, in assay [4], binding was characterised by a dissociation constant (Kd) of 0.0753 µM, the koff is 0.0119 s⁻¹ and the kon came to 159000 M⁻¹ s⁻¹.

B9: single domain antibody AHP15662-VHH4-Variant1 (Fc fusion)
chain: EVQLVESGGGLVQPGGSLRLSCAASYYISRFYAVGWYRQAPGKQRELVARISSGGWTYYADSVKGRFTISIDNSKNTLYLQMNSLRAEDTAVYYCNARNLWGQGTLVTVSS
notes: as for B2
In assay [4], B9 displayed a Kd of 0.0463 µM, a koff of 0.00701 s⁻¹ and a kon of 151000 M⁻¹ s⁻¹.

B10: single domain antibody AHP15485 (Fc fusion)
chain: EVQLVESGGGLAQAGGSLSLSCTASGRSFSNFQMGWFRQAPGKEREFVAASGWSGGPTYYADSVKGRFTISTDDSKKTMYLQMNSLKPEDTAAYYCYEDRVLSGRPVRYWGRGTQVTVSS
notes: Alpaca VHH expressed from pcDNA3.4-Fc (HuIgG1) in HEK293-6E; also called AHP15485-VHH; not shown: human IgG1 Fc of the pcDNA3.4-Fc (HuIgG1) expression vector
Consider B10, for which the “Geometric Mean : Alexa Fluor 647-H” value in assay [1] was found to be 31400. Also, in assay [2], the Kd was 0.28 µM, the koff is 0.063 s⁻¹ and the kon worked out at 225000 M⁻¹ s⁻¹. In assay [6], this molecule had a 50% effective concentration (EC50) of 6.1 ng/mL. Moreover, the “Geometric Mean : Alexa Fluor 647-H” value in assay [3] came to 61400.

B11: single domain antibody AHP15485-VHH4-Variant2 (Fc fusion)
chain: EVQLVESGGGLVQPGGSLRLSCAASGRSFSSFQMGWFRQAPGKEREFVAASGWSGGPTYYWDSVIGRFTISTDNSKNTLYLQMNSLRAEDTAVYYCYEDRVLSGRPVRYWGQGTLVTVSS
notes: as for B2
Turning to B11, in assay [7], binding was characterised by a dissociation constant (Kd) of 0.0214 µM, the off-rate (koff) came to 0.0018 s⁻¹ and the kon was found to be 84000 M⁻¹ s⁻¹.

B12: single domain antibody AHP15485-VHH4-Variant1 (Fc fusion)
chain: EVQLVESGGGLVQPGGSLRLSCAASGRSFSNFQMGWFRQAPGKEREFVAASGWSGGPTYYWDSVIGRFTISTDNSKNTLYLQMNSLRAEDTAVYYCYEDRVLSGRPVRYWGQGTLVTVSS
notes: as for B2
In assay [7], B12 returned a Kd of 0.184 µM, a koff of 0.0153 s⁻¹ and a kon of 83100 M⁻¹ s⁻¹.

B13: single domain antibody AHF22018 (Fc fusion)
chain: EVQLVESGGGLVQPGGSLRLSCAASGRSFSSFQMGWFRQAPGKEREFVAASGWSGGPTYYWDSWKGRFTISTDNSKNTLYLQMNSLRAEDTAVYYCYEDRVLSGRWVRYWGQGTLVTVSS
notes: not shown: human IgG1 Fc; vector and li
In assay [7], B13 yielded a Kd of 0.0203 µM, a dissociation rate constant (koff) of 0.000884 s⁻¹ and a kon of 43500 M⁻¹ s⁻¹.

B14: single domain antibody AHF22013 (Fc fusion)
chain: EVQLVESGGGLVQPGGSLRLSCAASGRSFSSFQMGWFRQAPGKEREFVAASGWSGGPTYYWDSVIGRFTISTDNSKNTLYLQMNSLRAEDTAVYYCYEDRVLSGRHVRYWGQGTLVTVSS
notes: as for B2
B14: in assay [7], the Kd came out at 0.00891 µM, the dissociation rate constant (koff) amounted to 0.000374 s⁻¹ and the kon was 42000 M⁻¹ s⁻¹.

B15: humanized single domain antibody AHP15485-VHH4 (Fc fusion)
chain: EVQLVESGGGLVQPGGSLRLSCAASGRSFSNFQMGWFRQAPGKEREFVAASGWSGGPTYYADSVKGRFTISTDNSKNTLYLQMNSLRAEDTAVYYCYEDRVLSGRPVRYWGQGTLVTVSS
notes: as for B1
For the molecule B15, in assay [1], the “Geometric Mean : Alexa Fluor 647-H” value came out at 8630. For the same molecule, in assay [2], the Kd was 0.32 µM, the koff stood at 0.0686 s⁻¹ and the kon is 214000 M⁻¹ s⁻¹. In assay [7], the affinity, expressed as Kd, was 0.29 µM; the koff was determined as 0.0547 s⁻¹; the kon worked out at 189000 M⁻¹ s⁻¹. Also, the “Geometric Mean : Alexa Fluor 647-H” value in assay [3] worked out at 38500.

The values above are taken from patent publication US20260158064A1 (NANJING PROBIO BIOTECH, published 2026).
